Experimental data as given in US20210253679A1 (NATIONAL RESEARCH COUNCIL OF CANADA, published 2021).
Residue numbers refer to the chain shown, from its start.

B1: M75-H4 (VHH)
VHH: QVQLVESGGGLVQPGGSLRLSCAASGRTFDNYVMAWFRQAPGKEREFVASISGSGSITNYANSVKDRFTISRDSSKNALYLQMNSLRAEDTAVYYCAAGSRRTYYREPKFYPSWGQGTLVTVSS
B2: M75-H1 (VHH)
VHH: B1 VHH with Q1E, E44G, R45L, A49S, S74N, A78T
B3: M75-H2 (VHH)
VHH: B1 VHH with Q1E, A49S, S74N, A78T
B4: M75-H5 (VHH)
VHH: B1 VHH with S75A, L79I
B5: M75-H3 (VHH)
VHH: B1 VHH with S74N, A78T
B6: Rh34-H2 (VHH)
VHH: EVQLVESGGGLVQPGGSLRLSCAASGRTISLYAVGWFRQAPGKEREFVSAISWTDSSTYYADSVKGRFTISRDNSKNTLYLQMNSLRAEDTAVYYCAADVSIRGLQKYEYDYWGQGTLVTVS
B7: Rh34-H5 (VHH)
VHH: B6 VHH with E1Q, Q39R, S49A, S75A, L79V
B8: R28-H2 (VHH)
VHH: EVQLVESGGGLVQPGGSLRLSCAASGRTFIAYAMGWFRQAPGKEREFVSAITNFAGGTTYYADSVKGRFTISRDNSKNTLYLQMNSLRAEDTAVYYCAADRSAQTMRQVRPVLPYWGQGTLVTVSS
B9: R28-H3 (VHH)
VHH: B8 VHH with E1Q, S49A
B10: R28-H4 (VHH)
VHH: B8 VHH with E1Q, S49A, S76A, N78T
B11: R28-H5 (VHH)
VHH: B8 VHH with E1Q, S49A, S76A, N78T, L80V
B12: Rh34-H4 (VHH)
VHH: QVQLVESGGGLVQPGGSLRLSCAASGRTISLYAVGWFRRAPGKEREFVAAISWTDSSTYYADSVKGRFTISRDNSKNTLYLQMNSLRAEDTAVYYCAADVSIRGLQKYEYDYWGQGTLVTVSS
B13: Rh34-H3 (VHH)
VHH: B12 VHH with R39Q
B14: Rh34-H1 (VHH)
VHH: B12 VHH with Q1E, R39Q, E44G, R45L, A49S
B15: M79-H4 (VHH)
VHH: QVQLVESGGGLVQPGGSLRLSCAASGSTFSSSSVGWYRQAPGQQRELVAAITSGGSTNTADSVKGRFTISRDNSKNTLYLQMNSLRAEDTAVYYCNVAGRNWVPISRYSPGPYWGQGTLVTVSS
B16: M79-H3 (VHH)
VHH: B15 VHH with Q1E, Q43K, A49S
B17: M79-H5 (VHH)
VHH: B15 VHH with S74A, L78V
B18: M79-H2 (VHH)
VHH: B15 VHH with Q1E, Q43K, Q44G, R45L, A49S
B19: R11-H1 (VHH)
VHH: EVQLVESGGGLVQPGGSLRLSCAASGFLLRSNTMGWYRQAPGKGLELVSFIRPSGLTNYNDAVQGRFTISRDNSKNTLYLQMNSLRAEDTAVYYCATRPPFQRDSWGQGTLVTVSS
B20: R11-H6 (VHH)
VHH: B19 VHH with E1Q, A24G, S25P, G44E, L45R, S49A, S74A, L78V, A96H
B21: R11-H5 (VHH)
VHH: B19 VHH with E1Q, A24G, S25P, G44E, L45R, S49A, A96H
B22: R11-H2 (VHH)
VHH: B19 VHH with A96H
B23: Rh46-H4 (VHH)
VHH: QVQLVESGGGLVQPGGSLRLSCAASTRTFSSYIMGWFRQAPGKERELVAAISWSGRMTHYADSVKGRFTISRDNSKNTLYLQMNSLRAEDTAIYSCAADRTTAWGAPRSQYDSWGQGTLVTVSS
B24: Rh46-H3 (VHH)
VHH: B23 VHH with I93V, S95Y
B25: Rh46-H5 (VHH)
VHH: B23 VHH with S75A, L79V
B26: Rh46-H1 (VHH)
VHH: B23 VHH with Q1E, E44G, R45L, A49S, I93V, S95Y
B27: H18-H4 (VHH)
VHH: QVQLVESGGGLVQPGGSLRLSCAASGSIESINRMAWYRQAPGQQREFVARISKGGSTNYPDSVKGRFTISRDNSKNTLYLQMNSLRAEDTAVYYCAAGPVWEQFWGQGTLVTVSS
B28: H18-H1 (VHH)
VHH: B27 VHH with Q1E, Q43K, Q44G, R45L, A49S
B29: H18-H5 (VHH)
VHH: B27 VHH with S74A, L78V
B30: H18-H3 (VHH)
VHH: B27 VHH with Q43K
B31: Rh46-H2 (VHH)
VHH: EVQLVESGGGLVQPGGSLRLSCAASTRTFSSYIMGWFRQAPGKERELVSAISWSGRMTHYADSVKGRFTISRDNSKNTLYLQMNSLRAEDTAVYYCAADRTTAWGAPRSQYDSWGQGTLVTVS

The binders below were run against T1, rat serum albumin (rat, UniProt P02770 25-608) (assay: SPR, single cycle kinetics, pH 7.4).
T1 construct: also called RSA

| Binder | Kd | binding result |
| --- | --- | --- |
| B1 | 377 nM | – |
| B2 | 659 nM | – |
| B3 | 2490 nM | – |
| B4 | 62.4 nM | – |
| B5 | 1260 nM | – |
| B6 | – | no binding |
| B7 | – | no binding |
| B8 | 4.1 nM | – |
| B9 | 2.4 nM | – |
| B10 | 1.1 nM | – |
| B11 | 0.4 nM | – |
| B12 | – | no binding |
| B13 | – | no binding |
| B14 | – | no binding |
| B15 | 10 nM | – |
| B16 | 8.7 nM | – |

| Binder | Kd | binding result |
| --- | --- | --- |
| B17 | 20.2 nM | – |
| B18 | 10.4 nM | – |
| B19 | – | no binding |
| B20 | 151 nM | – |
| B21 | 196 nM | – |
| B22 | – | no binding |
| B23 | – | no binding |
| B24 | – | no binding |
| B25 | – | no binding |
| B26 | – | no binding |
| B27 | – | no binding |
| B28 | – | no binding |
| B29 | – | no binding |
| B30 | – | no binding |
| B31 | – | no binding |

Each binder was assayed against T2, human serum albumin (human, UniProt P02768 25-609) (assay: SPR, single cycle kinetics, pH 7.4).
T2 construct: also called HSA

| Binder | Kd | binding result |
| --- | --- | --- |
| B1 | 2.8 nM | – |
| B2 | 3.2 nM | – |
| B3 | 7.8 nM | – |
| B4 | 2.1 nM | – |
| B5 | 4.8 nM | – |
| B6 | 1330 nM | – |
| B7 | 410 nM | – |
| B8 | 147 nM | – |
| B9 | 51.3 nM | – |
| B10 | 11.5 nM | – |
| B11 | 11.1 nM | – |
| B12 | 647 nM | – |
| B13 | 1370 nM | – |
| B14 | 824 nM | – |
| B15 | 58.9 nM | – |
| B16 | 53.3 nM | – |
| B17 | 103 nM | – |
| B18 | 76.2 nM | – |
| B20 | 252 nM | – |
| B21 | 307 nM | – |
| B22 | – | no binding |
| B23 | 237 nM | – |
| B24 | 289 nM | – |
| B25 | 233 nM | – |
| B26 | 583 nM | – |
| B27 | 58.6 nM | – |
| B28 | 52.8 nM | – |
| B29 | 59.4 nM | – |
| B30 | 19.1 nM | – |
| B31 | 426 nM | – |

The binders below were run against T3, rhesus serum albumin (rhesus, UniProt Q28522 17-600) (assay: SPR, single cycle kinetics, pH 7.4).
T3 construct: also called RhSA

| Binder | Kd | binding result |
| --- | --- | --- |
| B1 | 6.7 nM | – |
| B2 | 6.1 nM | – |
| B3 | 63.6 nM | – |
| B4 | 4.6 nM | – |
| B5 | 17.7 nM | – |
| B6 | 1470 nM | – |
| B7 | 589 nM | – |
| B8 | 2630 nM | – |
| B9 | 625 nM | – |
| B10 | 1740 nM | – |
| B11 | 145 nM | – |
| B12 | 739 nM | – |
| B13 | 1260 nM | – |
| B14 | 1350 nM | – |
| B15 | 38.7 nM | – |
| B16 | 36.7 nM | – |

| Binder | Kd | binding result |
| --- | --- | --- |
| B17 | 86.5 nM | – |
| B18 | 62.1 nM | – |
| B19 | – | no binding |
| B20 | 561 nM | – |
| B21 | 643 nM | – |
| B22 | – | no binding |
| B23 | 405 nM | – |
| B24 | 415 nM | – |
| B25 | 343 nM | – |
| B26 | 707 nM | – |
| B27 | 34.4 nM | – |
| B28 | 91.5 nM | – |
| B29 | 91.7 nM | – |
| B30 | 38.2 nM | – |
| B31 | 456 nM | – |

These binders were tested against T1, rat serum albumin (assay: SPR, single cycle kinetics, pH 5.5).

| Binder | Kd |
| --- | --- |
| B8 | 1 nM |
| B9 | 1.8 nM |
| B10 | 5.3 nM |
| B11 | 3.5 nM |
| B15 | 8.8 nM |
| B16 | 12.2 nM |
| B17 | 6.6 nM |
| B18 | 5.9 nM |
| B20 | 123 nM |
| B21 | 160 nM |

Each binder was assayed against T2, human serum albumin (assay: SPR, single cycle kinetics, pH 5.5).

| Binder | Kd |
| --- | --- |
| B6 | 2320 nM |
| B7 | 524 nM |
| B8 | 6.6 nM |
| B9 | 47.2 nM |
| B10 | 51.6 nM |
| B11 | 2 nM |
| B12 | 974 nM |
| B13 | 2310 nM |
| B14 | 1560 nM |
| B15 | 8.4 nM |
| B16 | 9.6 nM |
| B17 | 8.1 nM |
| B18 | 6.5 nM |
| B20 | 67.5 nM |
| B21 | 98.2 nM |
| B23 | 51.5 nM |
| B24 | 70.3 nM |
| B25 | 54.9 nM |
| B26 | 97.7 nM |
| B27 | 57.1 nM |
| B28 | 56.3 nM |
| B29 | 46.6 nM |
| B30 | 22.3 nM |
| B31 | 87.3 nM |

What follows are binders tested against T3, rhesus serum albumin (assay: SPR, single cycle kinetics, pH 5.5).

| Binder | Kd |
| --- | --- |
| B6 | 3080 nM |
| B7 | 1420 nM |
| B8 | 668 nM |
| B9 | 1270 nM |
| B10 | 341 nM |
| B11 | 7.3 nM |
| B12 | 2250 nM |
| B13 | 1810 nM |
| B14 | 1920 nM |
| B15 | 2.9 nM |
| B16 | 2.9 nM |
| B17 | 4.2 nM |
| B18 | 2.6 nM |
| B20 | 511 nM |
| B21 | 525 nM |
| B23 | 25.2 nM |
| B24 | 34 nM |
| B25 | 24.1 nM |
| B26 | 40.8 nM |
| B27 | 72.7 nM |
| B28 | 92.2 nM |
| B29 | 70.7 nM |
| B30 | 57.6 nM |
| B31 | 44.1 nM |
